# Entries after “also recorded” stand apart in the source; their conditions may differ.
# Assays:
# caspase-3 = biological target: T1, caspase-3 (Homo sapiens, UniProt P42574); experiment: caspase-3 activity assay (CaspGlo) with Nanog cleavage site peptides; assay type: biochemical; settings: FIG. 10B
# T1 construct: purchased BD Bioscience 556471
# T1 sequence (P42574 29-175 limits assumed): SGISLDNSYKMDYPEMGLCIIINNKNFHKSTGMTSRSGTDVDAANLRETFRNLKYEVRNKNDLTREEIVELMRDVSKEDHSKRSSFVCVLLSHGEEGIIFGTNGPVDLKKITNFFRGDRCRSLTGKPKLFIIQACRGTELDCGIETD
# T1 sequence (P42574 176-277 limits assumed): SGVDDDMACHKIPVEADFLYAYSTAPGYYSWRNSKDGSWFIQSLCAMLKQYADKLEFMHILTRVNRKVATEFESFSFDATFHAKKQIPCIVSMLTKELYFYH
# Protocol: Trypsinized ES cells (R1; 200,000; D3 250,000) were plated into 6 wells containing normal ES cell medium, and on the next day the medium was changed to 1 μM RA differentiation medium. Cells were harvested with trypsin-EDTA (Invitrogen, cat. no. 25300-054), and protein extracts were made in 0.1% CHAPS buffer, pH 7.2 (50 mM Hepes; 150 mM KCl; 1× protease inhibitors (Roche, cat. no. 1697498001); 2 mM Na fluoride and orthovanadate, respectively, at specified time points. The CaspGlo (Promega, cat. no. G8091) kit was used to directly measure caspase activity. Before determining caspase activity, we tested the system for variability within the dynamic range, using recombinant caspase-3 (BD Bioscience, cat. no. 556471). The signal was measured with the Wallac 1429 Victorll instrument (Perkin-Elmer, Wellesley, Mass.).
# R1 ES cells = experiment: Apoptosis rate (counting apoptotic bodies); assay type: cell-based, mouse; settings: over 72 hours post-stimulation with RA
# Protocol: R1 ES cells (1×10^5) were plated into 6-cm dishes on irradiated MEFs and stimulated with RA differentiation medium for up to 72 hours. Cells were fixed with 4% paraformaldehyde (EMS, cat. no. 15710), stained with DAPI and mounted with Vectashield (Vector Lab, cat. no. H1200). The number of apoptotic figures was determined in triplicate per 100 cells. As a positive control, ES cells were incubated with staurosporine (Sigma, cat. no. 55921, 1 μM) for 4 hours.
Molecule,inhibition / targeting of caspase-3 by cleavage site peptide (caspase-3),percentage of cells undergoing apoptosis (R1 ES cells)
DSPD: hNanog caspase cleavage site peptide,effectively inhibit caspase-3,–
"CC1=C(/C=C/C(C)=C/C=C/C(C)=C/C(=O)O)C(C)(C)CCC1 [RA, retinoic acid]",–,essentially no increases
GSPD: mNanog caspase cleavage site peptide,effectively inhibit caspase-3; also recorded: still targeted by caspase-3,–
